This note sets out measurements from PMC10772735, “Characterization of erythroferrone oligomerization and its impact on BMP antagonism” (The Journal of Biological Chemistry, 2023).

The chains are these.
B1: N-terminally flag-tagged hERFE (residues 44–354), WT erythroferrone [human] / BMP6 [not stated] (parent)
chain 1: PPPGNELPRGPGESRAGPAARPPEPTAERAHSVDPRDAWMLFVRQSDKGVNGKKRSRGKAKKLKFGLPGPPGPPGPQGPPGPIIPPEALLKEFQLLLKGAVRQRERAEPEPCTCGPAGPVAASLAPVSATAGEDDDDVVGDVLALLAAPLAPGPRAPRVEAAFLCRLRRDALVERRALHELGVYYLPDAEGAFRRGPGLNLTSGQYRAPVAGFYALAATLHVALGEPPRRGPPRPRDHLRLLICIQSRCQRNASLEAIMGLESSSELFTISVNGVLYLQMGQWTSVFLDNASGCSLTVRSGSHFSAVLLGV
chain 2: SASSRRRQQSRNRSTQSQDVARVSSASDYNSSELKTACRKHELYVSFQDLGWQDWIIAPKGYAANYCDGECSFPLNAHMNATNHAIVQTLVHLMNPEYVPKPCCAPTKLNAISVLYFDDNSNVILKKYRNMVVRACGCH

This test covers variants of B1. Nature of the test: SPR competition (BMP6 + ERFE over Alk3-Fc captured on protein A chip). To be noted: curve maximum near the ~300 s dotted line, RU is residual BMP6 binding to Alk3-Fc (lower RU = more competition by ERFE), read off a plot.

For the variant chain 1 PPPGNELPRGPGESRAGPAARPPEPTAERAHSVDPRDAAMLFVRQSDKGVNGKKRSRGKAKKLKFGLPGPPGPPGPQGPPGPIIPPEALLKEFQLLLKGAVRQRERAEPEPCTCGPAGPVAASLAPVSATAGEDDDDVVGDVLALLAAPLAPGPRAPRVEAAFLCRLRRDALVERRALHELGVYYLPDAEGAFRRGPGLNLTSGQYRAPVAGFYALAATLHVALGEPPRRGPPRPRDHLRLLICIQSRCQRNASLEAIMGLESSSELFTISVNGVLYLQMGQWTSVFLDNASGCSLTVRSGSHFSAVLLGV [chain 1 W39A], the response reads like this: (with BMP6, 10 nM BMP6 + 80 nM W82A ERFE) 12 RU; (with BMP6, 10 nM BMP6 + 160 nM W82A ERFE) 10 RU.
Consider chain 1 PPPGNELPRGPGESRAGPAARPPEPTAERAHSVDPRDAWMLAVRQSDKGVNGKKRSRGKAKKLKFGLPGPPGPPGPQGPPGPIIPPEALLKEFQLLLKGAVRQRERAEPEPCTCGPAGPVAASLAPVSATAGEDDDDVVGDVLALLAAPLAPGPRAPRVEAAFLCRLRRDALVERRALHELGVYYLPDAEGAFRRGPGLNLTSGQYRAPVAGFYALAATLHVALGEPPRRGPPRPRDHLRLLICIQSRCQRNASLEAIMGLESSSELFTISVNGVLYLQMGQWTSVFLDNASGCSLTVRSGSHFSAVLLGV [chain 1 F42A], for which the response is 12 RU (with BMP6, 10 nM BMP6 + 80 nM F85A ERFE) and 11 RU (with BMP6, 10 nM BMP6 + 160 nM F85A ERFE).
